Assay results as given in US20040019193A1, “Mob-5/hmob-5 as a cancer diagnostic marker” (priority 2002, published 2004).

Key:
mob-5 = test: Differential display of Rat-1(ras) cells with or without PD98059; assay type: cell-based; settings: 10 μM for 24 hours
Method: (B) Identification of mob-5 as a gene activated by oncogenic h-ras but inactivated by MAP kinase inhibitor, PD98059. Total cellular RNA from the normal Rat-1 cells and their oncogenic h-ras transformed derivatives Rat-1(ras) treated with or without 10 μM of PD98059 for 24 hours were compared by differential display. The same primer combination as used in (A) identified the mob-5 (arrow) again as a candidate gene activated by ras but inhibited by ras downstream MAP kinase inhibitor.
RNA purification, automated differential display screening and Northern blot analysis Total RNA from cells were purified using the RNApure reagent following the manufacture instruction (GenHunter Corp., Nashville, Tenn.). DNase I treatment of RNA prior to differential display was carried out using the MessageClean kit (GenHunter Corp., Nashville, Tenn.). Differential display PCR reactions were setup in 96-well PCR plates (Perkin-Elmer) by the Beckman Biomek 2000 automated liquid dispensing workstation using one-base anchored oligo-dT primers and rationally designed arbitrary 13mers (Liang et al., 1994b) from the RNAimage kits (GenHunter Corp., Nashville, Tenn.). The cDNAs were amplified in the presence of ^33P [(α-dATP] (New England Nuclear, Boston, Mass.) using Taq DNA polymerase (Qiagene) and separated on 6 % denaturing polyacrylamide gels (National Diagnostic, Atlanta, Ga.). […]

[1] = tested on: putative Mob-5 receptor on the cell surface of h-ras transformed Rat-1 cells; test: Mob-5-AP receptor binding assay on Rat-1 cells before and after h-ras transformation; settings: normal versus h-ras transformed Rat-1 cells, media at 0.7 unit/ml
Method: Both the normal and oncogenic h-ras transformed Rat-1 cells were analyzed for the ability to bind Mob-5-AP versus AP alone. The cell surface bound AP activity was measured to reveal a Mob-5 mediated-binding activity present only on the cell surface of the h-ras transformed cells. The result is representative of at least 5 independent experiments.
Identification of a putative receptor(s) of Mob-5 on the cell surface of h-ras transformed cells Another possible mechanism for Mob-5 function is that Mob-5 acts as an autocrine growth factor downstream of activated Ras. Ras transformed RIE cells can be used in a receptor binding assay. APtag technology (Flanagan and leder, 1990) was employed to create a Mob-5-alkaline phosphatase (AP) fusion protein, which can be used as an affinity agent for the receptor analysis. This strategy has been successfully used to identify and clone a number of important cell surface receptors, including those of leptin (Tartaglia et al., 1995) and semaphorin III (He and Tessier-Lavigne, 1997). Like Mob-5 itself, Mob-5-AP was secreted at high levels in 293T cells stably transfected with the recombinant plasmid. The secreted 90 KD Mob-5-AP can be readily detected from the culture media by either the alkaline phosphatase assay or direct Western blot analysis using anti-Mob-5 antibody (FIG. 4A). […]

[2] = tested on: putative Mob-5 receptor on the cell surface of h-ras transformed RIE cells; test: AP fusion protein receptor binding assay on RIE cells before and after h-ras transformation; design: species or system rat; settings: normal versus h-ras transformed RIE cells, media at 0.7 unit/ml
Method: (E) Mob-5-AP, but not hMob-5-AP, binds specifically to the cell surface of oncogenic h-ras transformed RIE cells. Both the normal and oncogenic h-ras transformed RIE cells were analyzed for the ability to bind Mob-5-AP versus AP alone. The same experiment was carried out with hMob-5-AP and AP alone. The cell surface bound AP activity was measured to reveal a species specific Mob-5 binding activity present only on the cell surface of the h-ras transformed RIE cells. The result is representative of at least 3 independent experiments.
As in Rat-1 cells, the putative Mob-5 receptor was also found to be differentially expressed between the normal and h-ras transformed RIE cells using Mob-5-AP fusion protein as a ligand (FIG. 4E, left panel). To determine whether hMob-5-AP could also differentially bind to the cell surface of h-ras transformed RIE cells, the receptor binding assay was conducted using hMob-5-AP in place of Mob-5-AP.
mob-5 expression is activated by both oncogenic h-ras and k-ras in intestinal epithelial cells Cancer arises from the epithelial cells rather than fibroblasts and K-ras mutations have been tightly linked with cancers of gastric intestinal origins (Kiaris and Spandidos, 1995). […] After the final 5 min extension at 72 ° C., the RT-PCR products were analyzed on a 1.5 % agarose gel. […]

| Molecule | mob-5 expression (differential display) (mob-5) | cell surface binding (bound AP activity) versus AP alone [1] | cell surface binding (bound AP activity) versus AP alone [2] |
| --- | --- | --- | --- |
| COc1cccc(-c2cc(=O)c3ccccc3o2)c1N [PD98059] | inactivated | – | – |
| Mob-5-AP: rat Mob-5-alkaline phosphatase fusion protein, secreted, 90 KD (SEQ ID NO: 8) (protein) MQTSLRQQILPGLSLILLVLNQVPELQGQEFRFGPCQVTGVVLPELWEAFWTVKNTVKTQDELTSVRLLKPQVLQNVSDAESCYLAHSLLKFYLNTVFKNYHSKIVKFKVLKSFSTLANNFLVIMSKLQPSKDNAMLPISDSARRRFLLYHRTFKQLDIEVALAKAFGEVDILLAWMQNFYQLGSSGIIPVEEENPDFWNREAAEALGAAKKLQPAQTAAKNLIIFLGDGMGVSTVTAARILKGQKKDKLGPEIPLAMDRFPYVALSKTYNVDKHVPDSGATATAYLCGVKGNFQTIGLSAAARFNQCNTTRGNEVISVMNRAKKAGKSVGVVTTTRVQHASPAGTYAHTVNRNWYSDADVPASARQEGCQDIATQLISNMDIDVILGGGRKYMFPMGTPDPEYPDDYSQGGTRLDGKNLVQEWLAKRQGARYVWNRTELMQASLDPSVTHLMGLFEPGDMKYEIHRDSTLDPSLMEMTEAALRLLSRNPRGFFLFVEGGRIDHGHHESRAYRALTETIMFDDAIERAGQLTSEEDTLSLVTADHSHVFSFGGYPLRGSSIFGLAPGKARDRKAYTVLLYGNGPGYVLKDGARPDVTESESGSPEYRQQSAVPLDEETHAGEDVAVFARGPQAHLVHGVQEQTFIAHVMAFAACLEPYTACDLAPPAGTTDAAHPG | – | preferentially bound to the cell surface of the h-ras transformed Rat-1 cells, but not of the parental control | binds specifically only to the ras transformed RIE cells |
